Experimental data as given in paper PMC2150735.
Where two headings read alike, the source gives them in different places.

Experiments:
GST-RanBP3 (human) = assay: pull-down
Crm1-His6 (human) [1] = target: Crm1-His6 (human) (UniProt O14980); assay: ELISA
Crm1-His6 (human) [2] = target: Crm1-His6 (human) (UniProt O14980); assay: ELISA; remark: listed apart in the source

| Substance | ratio bound/total at 1 min, with RanBP1 (GST-RanBP3 (human)) | ratio bound/total at 1 min, without RanBP1 (GST-RanBP3 (human)) | ratio bound/total at 10 min, with RanBP1 (GST-RanBP3 (human)) | Kd (Crm1-His6 (human) [1]) | Kd (Crm1-His6 (human) [2]) |
| --- | --- | --- | --- | --- | --- |
| Crm1-His6 (from UniProt O14980 1-1071) (receptor) | 0.52 | 0.59 | 0.39 | – | – |
| GST-RanBP3 (natural protein) | – | – | – | 106 nM | 64 nM |
